Measured values taken from patent US20260069707A1, “COMBINATION THERAPY WITH ANTIBODY-DRUG CONJUGATES AND HYALURONIDASES” (HALOZYME, INC., priority 2024, published 2026).
Values joined by “and” are separate entries in the source; they are usually repeats but may differ in a detail not shown here. Identical values can stand only once.

Tests used:
[1] = Post-injection bleb volume, area, height - 3D imaging; assay type: in vivo, Yucatan miniature pig (Sus scrofa domestica); details: minipig, 10 mL SC by HVAI, T0; n=3 alone, n=2 with rHuPH20
Description: 3D imaging was applied as a longitudinal methodology to measure post-injection swelling. By obtaining high definition pre- and post-injection 3D images the distances between two registered surfaces can be determined. The camera captures images using a factory calibrated bifocal imaging system to measure distance between surfaces. Surface registration was performed using a multipoint method that utilized common landmarks between the pre-injection image and the post-injection image. Using the proprietary software, the volume, area and height of the post-injection swelling was calculated for each injection (Canfield Biosciences, Inc.).
Assessment of Post-Injection Bleb Shape, Volume, Area and Height (3D Imaging). Pre- and post-injection photographs were taken using a 3D imaging system (Canfield Scientific). This technology permits point-to-point alignment of these two images through multipoint surface registration. The distance between any two points is then represented using a colorimetric surface contour map. […] The color intensity is proportional to the amount of distance measured between images with darker blue color indicating greater distance from the pre-injection image. Out of range measurements (distances greater than 6 mm) are depicted in white. Bleb measurements of volume and height include regions out of range.
These registered pre-/post-injection images were then used to calculate the bleb volume, height, circumference, length, and width for each bleb using proprietary software (Vectra H1 software; Canfield Sciences).

[2] = Enhertu analytes (TAB, TADC, free payload) in skin tissue homogenates of injection site; assay type: in vivo, Yucatan miniature pig (Sus scrofa domestica); details: for Mean skin concentration, Free Payload / Mean skin concentration, Total ADC (TADC) / Mean skin concentration, Total Antibody (TAB) / Concentration of free payload in the skin of minipigs / Total ADC concentration in the skin of minipigs / Total antibody concentration in the skin of minipigs / AUC1-7, free payload in skin / AUC1-7, total ADC in skin / AUC1-7, total antibody in skin / Cmax, free payload in skin / Cmax, total ADC in skin / Cmax, total antibody in skin: SC
Description: Porcine serum was used as surrogate matrix to prepare calibration standards and quality controls for skin sample quantitation. Untreated blank porcine skin was provided for preparation of monitoring quality controls. The porcine skin was homogenized at an approximate ratio of 0.5 mL of buffer for every 100 mg of skin. […] The monitoring controls were analyzed during the method performance evaluation. The following were selected for monitoring in the assay (Table 83).
Porcine serum was used as surrogate matrix to prepare calibration standards and quality controls for the quantitation of skin samples. […] The porcine skin was homogenized at an approximate ratio of 0.5 mL of buffer for every 100 mg of skin. […] These were analyzed during the method performance evaluation.
This sample was divided vertically into two identical pieces. One skin sample was placed into a pre-weighed cryogenic tube and its weight was recorded then stored on dry ice prior to transfer to ≤−70° C. The other skin sample was processed for potential future histological assessment into OCT freezing media and frozen on dry ice.
Animals received two SC doses on their lower abdominal region.
Two cohorts were included in the follow-on study. […] Each animal had two full thickness skin biopsies taken post-mortem using a 12 mm punch. This sample was divided vertically into two identical pieces. One skin sample was placed into a pre-weighed cryogenic tube and its weight was recorded, then stored on dry ice prior to transfer to ≤−70° C. The other skin sample was processed into OCT molds for potential future histological assessment.
Tissue lysates were prepared based upon the weight of the sample at a ratio of 0.2 g/mL homogenization buffer (Tables 81 and 82). The total protein concentration of each homogenate was determined by BCA assay. The concentration of the total ADC (TADC), total antibody (TAB) and free payload (deruxtecan) in each sample was then normalized to the protein concentration and reported in μg analyte per mg total protein.
In this study, six animals were used. […] Two cohorts were included in this study. Cohort 1 was euthanized 24 hours after treatment, while Cohort 2 was euthanized 48 hours after exposure to the two test solutions.

[3] = 24 hours after SC administration
[4] = 48 hours after SC administration
[5] = day 1, individual animal, listed as ADC
[6] = day 2, individual animal, listed as ADC
[7] = day 7, individual animal, listed as ADC
[8] = individual series, listed as ADC

Sacituzumab govitecan [Trodelvy]
Bleb Area (cm^2), 3D imaging (Mean ± SEM) [1]: 30.5 ± 2.9 cm^2
Bleb Height (mm), 3D imaging (Mean ± SEM) [1]: 7.6 ± 1.2 mm
Bleb Volume (mL), 3D imaging (Mean ± SEM) [1]: 8.1 ± 0.7 mL
Mean ADC in minipig skin [2, 3]: 24.21
Mean antibody (Ab) in minipig skin [2, 3]: 27.65
Mean payload in minipig skin [2, 3]: 0.02
Mean ADC in minipig skin [2, 4]: 6.92
Mean antibody (Ab) in minipig skin [2, 4]: 7.97
Mean payload in minipig skin [2, 4]: 0.00
Mean skin concentration, Free Payload ([2]; 24 h post-injection): 0.02 μg/mg protein
Mean skin concentration, Total ADC (TADC) ([2]; 24 h post-injection): 24.21 μg/mg protein
Mean skin concentration, Total Antibody (TAB) ([2]; 24 h post-injection): 27.65 μg/mg protein
Mean skin concentration, Free Payload ([2]; 48 h post-injection): 0.0042 μg/mg protein
Mean skin concentration, Total ADC (TADC) ([2]; 48 h post-injection): 6.92 μg/mg protein
Mean skin concentration, Total Antibody (TAB) ([2]; 48 h post-injection): 7.97 μg/mg protein
Mean skin concentration, Free Payload ([2]; 168 h post-injection): 0.0004 μg/mg protein
Mean skin concentration, Total ADC (TADC) ([2]; 168 h post-injection): 0.57 μg/mg protein
Mean skin concentration, Total Antibody (TAB) ([2]; 168 h post-injection): 0.73 μg/mg protein
Concentration of free payload in the skin of minipigs [2, 5]: 0.026 ug/mg protein and 0.020 ug/mg protein and 0.011 ug/mg protein
Total ADC concentration in the skin of minipigs [2, 5]: 38.48 ug/mg protein and 22.00 ug/mg protein and 12.15 ug/mg protein
Total antibody concentration in the skin of minipigs [2, 5]: 44.05 ug/mg protein and 22.63 ug/mg protein and 16.28 ug/mg protein
Concentration of free payload in the skin of minipigs ([2]; day 1, mean): 0.02 ug/mg protein
Total ADC concentration in the skin of minipigs ([2]; day 1, mean): 24.21 ug/mg protein
Total antibody concentration in the skin of minipigs ([2]; day 1, mean): 27.65 ug/mg protein
Concentration of free payload in the skin of minipigs [2, 6]: 0.003 ug/mg protein and 0.005 ug/mg protein (2×)
Total ADC concentration in the skin of minipigs [2, 6]: 5.97 ug/mg protein and 6.98 ug/mg protein and 7.80 ug/mg protein
Total antibody concentration in the skin of minipigs [2, 6]: 7.70 ug/mg protein and 8.07 ug/mg protein and 8.14 ug/mg protein
Concentration of free payload in the skin of minipigs ([2]; day 2, mean): 0.00 ug/mg protein
Total ADC concentration in the skin of minipigs ([2]; day 2, mean): 6.92 ug/mg protein
Total antibody concentration in the skin of minipigs ([2]; day 2, mean): 7.97 ug/mg protein
Concentration of free payload in the skin of minipigs [2, 7]: 0.001 ug/mg protein and 0.000 ug/mg protein (2×)
Total ADC concentration in the skin of minipigs [2, 7]: 0.69 ug/mg protein and 0.48 ug/mg protein and 0.55 ug/mg protein
Total antibody concentration in the skin of minipigs [2, 7]: 0.68 ug/mg protein and 0.72 ug/mg protein and 0.79 ug/mg protein
Concentration of free payload in the skin of minipigs ([2]; day 7, mean): 0.00 ug/mg protein
Total ADC concentration in the skin of minipigs ([2]; day 7, mean): 0.57 ug/mg protein
Total antibody concentration in the skin of minipigs ([2]; day 7, mean): 0.73 ug/mg protein
AUC1-7, free payload in skin [2, 8]: 0.024 ug*day/mL (2×) and 0.021 ug*day/mL
AUC1-7, total ADC in skin [2, 8]: 38.87 µg·days/mL and 33.14 µg·days/mL and 30.85 µg·days/mL
AUC1-7, total antibody in skin [2, 8]: 46.85 µg·days/mL and 37.33 µg·days/mL and 34.52 µg·days/mL
Cmax, free payload in skin [2, 8]: 26 ng/mL and 20 ng/mL and 11 ng/mL
Cmax, total ADC in skin [2, 8]: 38480 ng/mL and 22000 ng/mL and 12150 ng/mL
Cmax, total antibody in skin [2, 8]: 44050 ng/mL and 22630 ng/mL and 16280 ng/mL
AUC1-7, free payload in skin ([2]; mean): 0.02 µg·days/mL
AUC1-7, total ADC in skin ([2]; mean): 34.29 µg·days/mL
AUC1-7, total antibody in skin ([2]; mean): 39.57 µg·days/mL
Cmax, free payload in skin ([2]; mean): 20 ng/mL
Cmax, total ADC in skin ([2]; mean): 24210 ng/mL
Cmax, total antibody in skin ([2]; mean): 27650 ng/mL
